The results in this text go back to patent US8574601B2, “Sustained-release polymer micelle disruptable by HDL” (Nanocarrier Co., Ltd., priority 2010, dated 2013).

This data set in a line: Rat intravenous administration test of polymer micelle encapsulating G-CSF (Example 1), plasma G-CSF concentration. Format: in vivo. Particulars: 100 μg/kg i.v. tail vein, male Wistar rats; FIG. 3. The protocol: PEG-pGlu (10-40, 30% Chol) was used as a block copolymer. The block copolymer was weighed in a vial. A 20 mM 2-morpholinoethanesulfonic acid monohydrate (MES) buffer (pH 5) was added thereto so as to achieve a polymer concentration of 2 mg/mL and the mixture was vigorously stirred at 4° C. overnight. The polymer solution was subjected to ultrasonic irradiation (in an ice water bath, Low, interval of 1 second, 10 minutes) using a biodisruptor (High Power Unit manufactured by NIHONSEIKI KAISHA LTD.) and then treated with a 0.22-μm membrane filter. Thus, an empty micelle solution having a polymer concentration of 2 mg/mL was obtained. […]
The solution of the polymer micelles encapsulating G-CSF obtained above was administered to male Wistar rats via the tail vein. […] The plasma G-CSF concentration was measured using a G-CSF-ELISA kit (manufactured by RayBiotech, Inc.). […]
FIG. 3 illustrates the results of Example 1 (average±SD). FIG. 3 also illustrates theoretical values for the time-course of plasma concentration of a mixed polymer micelle (1:1), which theoretical values were calculated from the results of the time-courses of the plasma concentration of the test examples using PEG-pGlu (10-40, 30% Chol) and PEG-pGlu (10-40, 60% C8).

B1: G-CSF: G-CSF solution (100 μg/mL) administered directly (protein, UniProt P09919 31-207, looked up)
Granulocyte …: TPLGPASSLPQSFLLKCLEQVRKIQGDGAALQEKLVSECATYKLCHPEELVLLGHSLGIPWAPLSSCPSQALQLAGCLSQLHSGLFLYQGLLQALEGISPELGPTLDTLQLDVADFATTIWQQMEELGMAPALQPTQGAMPAFASAFQRRAGGVLVASHLQSFLEVSYRVLRHLAQP
B1: the “retention time in plasma” value is recorded as “extremely short”.
